Measurements: publication PMC6386368, “Multimerization of Homo sapiens TRPA1 ion channel cytoplasmic domains” (PLoS ONE, 2019)

B1: MBPCC1: maltose-binding protein fusion of the human TRPA1 C-terminal coiled-coil CC1 (amino acids A1036-T1078) (domain or fragment, UniProt O75762 1036-1078, looked up)
chain: ADKSLEMEILKQKYRLKDLTFLLEKQHELIKLIIQKMEIISET
notes: human TRPA1 C-terminal coiled-coil CC1, amino acids A1036-T1078; source: E. coli BL21(DE3), purified (amylose resin, SEC); also co-expressed with ARD in BL21(DE3), in cleared lysate; not shown: poly-histidine, N-terminal, kept; MBP, N-terminal, kept

Tests used:
[1] = target: B1; assay: pull-down; amylose resin co-purification from cleared lysate of bacteria co-expressing ARD and MBPCC1; incubation and 4 washes at 4 C, Buffer A1T, with or without IP6 and/or AITC; anti-His Western blot; conditions: partners not purified
[2] = target: the molecule itself; assay: SEC-MALS; MBPCC1 at 15 mg/ml (~300 uM), absence of IP6, Superdex 200 column
[3] = target: the molecule itself; assay: SEC-MALS; MBPCC1 diluted to 1 mg/ul (~20 uM) as printed, absence of IP6, Superdex 200 column

Row | Binder | ARD:CC ratio [1] | stoichiometry N [2] | stoichiometry N [3]
1 | TRPA1 ARD construct (N-terminal ankyrin repeat domains, amino acids 446-639) (domain or fragment, human, UniProt O75762 446-639, looked up, human TRPA1 ankyrin repeat domains with resolvable density in the cryoEM structure, amino acids 446-639; Cloned into pET28b (Nhe I and Sac I) in frame with an N-terminal poly-histidine tag; also called ARDs; N-terminal ARD; source: E. coli BL21(DE3), co-expressed with MBPCC1, in cleared lysate; not shown: poly-histidine, N-terminal, kept) KKSPLHFAASYGRINTCQRLLQDISDTRLLNEGDLHGMTPLHLAAKNGHDKVVQLLLKKGALFLSDHNGWTALHHASMGGYTQTMKVILDTNLKCTDRLDEDGNTALHFAAREGHAKAVALLLSHNADIVLNKQQASFLHLALHNKRKEVVLTIIRSKRWDECLKIFSHNSPGNKCPITEMIEYLPECMKVLLD | ~0.3 | – | –
2 | B1 | – | 4 | 3
